Measured values: patent US20050074754A1 (published 2005)

Molecular target: T1, human NKG2D (human, UniProt P26718 1-216)
T1 construct: whole, on cells; also called hNKG2D; expressed on CHO-K1/hNKG2D-11 cells
T1 sequence (looked up): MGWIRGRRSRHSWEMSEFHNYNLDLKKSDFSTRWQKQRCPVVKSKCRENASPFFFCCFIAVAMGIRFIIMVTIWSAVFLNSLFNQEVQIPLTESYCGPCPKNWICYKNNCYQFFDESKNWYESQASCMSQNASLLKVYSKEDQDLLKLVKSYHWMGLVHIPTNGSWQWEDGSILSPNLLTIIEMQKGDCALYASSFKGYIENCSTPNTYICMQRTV
Assay: flow cytometry on CHO-K1/hNKG2D-11 cells, detected with anti-human IgG (Fc)-FITC
Method: The human NKG2D-expressing CHO-K1 cell strain CHO-K1/hNKG2D-11 obtained in Example 7 was washed twice with PBS/1% FBS and suspended in 50 μl PBS/1% FBS containing 10 μl concentrate of the culture supernatant of the CSP2-Fc-expressing COS7 cells obtained in Example 6. The suspension was reacted at 0° C. for 60 minutes for binding them, then washed twice with 200 μl PBS/1% FBS, and suspended in 50 μl PBS/1% FBS containing 1 μl anti-human IgG (Fc)-FITC conjugate (Caltag). The suspension was reacted at 0° C. for 60 minutes for labeling, then washed twice with 200 μl PBS/1% FBS, and suspended again in 600 μl PBS/1% FBS. When the suspension was analyzed with a flow cytometer FACS Vantage (Becton Dickinson), cells with high intensity of FITC fluorescence were recognized, and the evident binding of CSP2-Fc protein to human NKG2D expressed on the surface of CHO-K1 cells was observed (FIG. 2A).

binding result: binds
B1: CSP2-Fc protein (fusion protein of CSP2 protein with human IgG Fc region) (Fc fusion)
chain: HSLCFNFTIKSLSRPGQPWCEAQVFLNKNLFLQYNSDNNMVKPLGLLGKKVNATSTWGELTQTLGEVGRDLRMLLCDIKPQIKTSDPSTLQVEMFCQREAERCTGASWQFAINGEKSLLFDAMNMTWTVINHEASKIKETWKKDRGLEKYFRKLSKGDCDHWLREFLGHWEAMPEPTVSPVNASDIHWSSS
notes: Used as a 100-fold concentrate of the culture supernatant of transfected COS7 cells, not purified; The construct encodes CSP2 residues 1-221; not shown: human IgG Fc region, amplified by PCR from human spleen IgG Fc cDNA (Clontech); Subclass, limits and the residues encode
